For test [1], the target named is T1, recombinant yeast-produced non-glycosylated pig TCN1 protein (Lifespan Biosciences, LS-G23154) (Sus scrofa, UniProt P17630 26-417).
T1 construct: Bought protein, Mw 46.3 kDa, non-glycosylated; also called rec Pig TCN1; recombinant Pig TCN1
T1 sequence: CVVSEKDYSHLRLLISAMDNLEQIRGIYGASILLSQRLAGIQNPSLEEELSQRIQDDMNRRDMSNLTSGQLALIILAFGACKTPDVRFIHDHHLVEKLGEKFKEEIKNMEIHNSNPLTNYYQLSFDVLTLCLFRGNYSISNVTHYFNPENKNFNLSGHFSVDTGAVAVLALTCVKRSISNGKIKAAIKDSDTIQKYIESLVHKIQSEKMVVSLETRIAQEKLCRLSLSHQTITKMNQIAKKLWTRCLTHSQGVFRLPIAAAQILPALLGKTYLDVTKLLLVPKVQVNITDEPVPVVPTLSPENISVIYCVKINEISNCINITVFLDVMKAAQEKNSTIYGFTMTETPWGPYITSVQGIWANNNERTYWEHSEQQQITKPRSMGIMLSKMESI
The test can be described thus: SPR (Biacore T200), mAb immobilised on CM5 chip, antigen injected at 25-1600 nM, 1:1 fit. The method, then:
(§1) The binding parameters of the interaction between the anti-Hog TCN1 monoclonal antibodies and the TCN1 protein were determined in kinetics experiments using Biacore T200 equipped with Biacore T200 Control Software Version 2.0.1 (GE Healthcare Bio-Sciences, Pittsburgh, Pa.). Anti-Hog TCN1 mAbs were immobilized at 700-5,000 RU density on the carboxymethyl dextran surface in flow cells 2, 3, and 4 of the CM5 sensor chip using amino-coupling chemistry. Control antibody was immobilized in flow cell 1 for bulk effects subtraction. Recombinant Pig TCN1 (LifeSpan BioSciences, LS-G23154, Seattle, Wash.) or native Hog R-protein were injected over the surfaces with immobilized mAbs during 8 minutes at a 30 μL/min flow rate followed by 20 minutes of dissociation. The buffer blanks were run in triplicate by injection of running buffer (10 mM HEPES, 150 mM NaCl, 0.05% P-20, pH 7.4) and used to double-reference the mAb-binding data before fitting. After each cycle of binding, the surface was regenerated by two consecutive injections of 10 mM Glycine, pH 2.0 and 0.1 M Sodium Bicarbonate, pH 8.5 for 30 seconds each at a 30 μL/min flow rate. Kinetic data were collected over 25-1600 nM antigen concentrations and globally fitted to a simple 1:1 interaction model. Biacore T200 Evaluation Software Version 3.0 (GE Healthcare Bio-Sciences) was used to determine the binding parameters of the Hog TCN1 specific mAbs interaction. Kinetic parameters of the binding of the anti-Hog TCN1 monoclonal antibodies with rec Pig TCN1 and native Hog R-protein are presented in Table 5.
On the technique in general: In SPR one partner is held on a chip, and binding of the other changes the refractive index at the surface.

Test [2] addresses T2, Hog Intrinsic Factor (Sus scrofa).
T2 construct: The source of the HIF sample used in the ELISAs is not described; also called HIF; Intrinsic Factor from Sus scrofa
T2 chain: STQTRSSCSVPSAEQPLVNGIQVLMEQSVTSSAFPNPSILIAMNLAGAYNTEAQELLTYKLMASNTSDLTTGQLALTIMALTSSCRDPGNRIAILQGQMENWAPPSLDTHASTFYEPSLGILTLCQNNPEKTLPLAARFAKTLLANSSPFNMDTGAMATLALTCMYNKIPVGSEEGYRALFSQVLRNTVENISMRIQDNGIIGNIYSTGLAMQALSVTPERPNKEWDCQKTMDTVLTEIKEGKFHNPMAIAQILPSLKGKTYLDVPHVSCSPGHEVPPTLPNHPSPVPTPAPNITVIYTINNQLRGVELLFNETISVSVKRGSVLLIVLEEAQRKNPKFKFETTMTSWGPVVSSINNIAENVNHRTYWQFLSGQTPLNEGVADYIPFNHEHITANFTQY
Description: ELISA, single point, hybridoma supernatant on plate coated with Hog Intrinsic Factor, OD 650 nm. The method, then:
One week after the last injection, the mice were bled, and the serum samples were tested for peptide-specific antibodies in an ELISA assay with corresponding ovalbumin conjugates and free peptides. All ELISA steps were performed at room temperature. Nunc Maxi-Sorp™ flat-bottom ELISA plates were coated with peptide or peptide-OVA conjugate at 2 and 1 μg/mL in PBS, respectively, at 50 μl per well for 1 hour. The plates were flicked dry, and the remaining binding sites were blocked by adding 200 μl per well of blocking solution (0.5% Casein in PBS containing 0.05% Tween 20) for 1 hour. Plates were washed three times with Milli-Q water containing 0.05% Tween 20, and antibody samples to be tested (serum, hybridoma supernatant, or mAb dilutions in PBS) were placed in the wells of the plates at volume 50 μl per well. After incubation for one hour, the plates were washed again as described above, and goat anti-mouse IgG-HRP conjugate diluted 1:3,000 in blocking solution was added at 50 μl per well for 1 hour. The plates were washed, and TMB substrate (Moss, Pasadena, Md.) was added at 100 μl per well for 15 minutes. Optical density of the samples at 650 nm was measured using an ELISA plate reader.
Mice received prefusion boosts on three consecutive days with the same immunogen (10 μg/dose/animal in PBS, IP), and on the fourth day, mouse spleens were harvested and frozen. Several years later, when recombinant Pig TCN1 protein became commercially available, thawed immune splenocytes were used for hybridoma preparation according to the standard procedure described above in Example 1. Hybridoma supernatants were screened for binding both rec Pig TCN1 (LifeSpan BioSciences, LS-G23154, Seattle, Wash.) and partially purified native Hog-R-protein adsorbed on ELISA plates at 1 μg/mL in 50 μl volume per well. Several hybridomas giving positive signals on both antigens were selected. […] No cross-reactivity of the monoclonal antibodies with Hog Intrinsic Factor was observed. The hybridomas were sub-cloned by limiting dilution, expanded, and frozen.
(In general: An ELISA detects its analyte on a solid surface through an enzyme-linked reagent.)

Test [3] concerns the target T2, Hog Intrinsic Factor. Description: ELISA, antigen titrated on the plate, mAb at 1 µg/mL, goat anti-mouse IgG-HRP, OD 650 nm. The method, then:
(§2) Purified mAbs were tested in an ELISA assay for binding to corresponding peptide, partially purified native Hog-R-protein, and recombinant Pig TCN1 (Lifespan BioSciences, LS-G23154, Seattle, Wash.), and Hog Intrinsic Factor. For this purpose, 2-fold dilution of the antigens starting from 8 μg/mL in PBS were placed in the wells of ELISA plates at 50 μl per well for 1 hour at room temperature. The plates were flicked dry, blocked with 200 μl per well of blocking solution, and washed three times as described above. Monoclonal antibodies to Hog TCN1 peptides at 1 μg/mL in PBS were added at 50 μl per well. After 1-hour incubation, the plates were washed again, and goat anti-mouse IgG-HRP conjugate diluted 1:3,000 in blocking solution was added at 50 μl per well for 1 hour. The plates were washed, and TMB substrate (Moss, Pasadena, Md.) was added at 100 μl per well for 15 minutes. Plates were read at 650 nm using an ELISA plate reader.

Test [4] concerns the target T3, R2 peptide (Hog TCN1 Peptide 80-89) (Sus scrofa).
T3 construct: Synthetic peptide QDDXNRRDXS, X = norleucine; also called synthetic R2 peptide
T3 peptide: QDD[Nle]NRRD[Nle]S
Description: ELISA, antigen titrated on the plate (2-fold from 8 µg/mL), mAb at 1 µg/mL, goat anti-mouse IgG-HRP, OD 650 nm. The method, then: as §2

Test [5] deals with T4, native Hog R-protein (glycosylated Hog TCN1 purified from crude powdered extract of hog gastric mucosa) (Sus scrofa, UniProt P17630 26-417, glycosylated, up to about 50% w/w carbohydrates).
T4 construct: Mw about 70-92 kDa; The native preparation used for Biacore is not described further; also called native Hog TCN1; partially purified native Hog R-protein
T4 sequence: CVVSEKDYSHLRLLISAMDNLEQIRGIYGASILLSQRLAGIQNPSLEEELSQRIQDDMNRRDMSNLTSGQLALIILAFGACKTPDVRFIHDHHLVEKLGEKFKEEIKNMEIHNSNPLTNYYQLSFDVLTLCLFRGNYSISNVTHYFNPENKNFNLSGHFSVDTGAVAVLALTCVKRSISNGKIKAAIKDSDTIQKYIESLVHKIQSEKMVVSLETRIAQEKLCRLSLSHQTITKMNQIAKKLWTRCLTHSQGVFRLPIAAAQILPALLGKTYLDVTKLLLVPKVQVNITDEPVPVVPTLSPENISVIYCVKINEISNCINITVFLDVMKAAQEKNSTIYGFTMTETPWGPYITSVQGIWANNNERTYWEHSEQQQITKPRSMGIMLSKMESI
The test can be described thus: SPR (Biacore T200), mAb immobilised on CM5 chip, antigen injected at 25-1600 nM, 1:1 fit. The method, then:
as §1

In test [6] the target is T4, native Hog R-protein (glycosylated Hog …). Description: SPR (Biacore T200), mAb immobilised on CM5 chip, antigen injected at 25-1600 nM, 1:1 fit; native Hog R-protein (heavily glycosylated). The method, then: as §1, with “Biacore T200 Evaluation Software Version 3.0 (GE Healthcare Bio-Sciences) was used to determine the binding parameters of the Hog TCN1 specific mAbs interaction. Kinetic parameters of the binding of the anti-Hog TCN1 monoclonal antibodies with rec Pig TCN1 and native Hog R-protein are presented in Table 5.” left out

Test [7] concerns the target T1, recombinant yeast-produced …. Description: SPR (Biacore T200); reference is the same mAb on native Hog R-protein. The method, then: as §1, with “Biacore T200 Evaluation Software Version 3.0 (GE Healthcare Bio-Sciences) was used to determine the binding parameters of the Hog TCN1 specific mAbs interaction. Kinetic parameters of the binding of the anti-Hog TCN1 monoclonal antibodies with rec Pig TCN1 and native Hog R-protein are presented in Table 5.” left out

The target is the same in test [8]. The test can be described thus: SPR (Biacore T200), mAb immobilised on CM5 chip, antigen injected at 25-1600 nM, 1:1 fit; rec TCN1 protein (non-glycosylated, yeast-produced). The method, then: as §1, with “Biacore T200 Evaluation Software Version 3.0 (GE Healthcare Bio-Sciences) was used to determine the binding parameters of the Hog TCN1 specific mAbs interaction. Kinetic parameters of the binding of the anti-Hog TCN1 monoclonal antibodies with rec Pig TCN1 and native Hog R-protein are presented in Table 5.” left out

The source of these data is patent US20220332803A1 (SIEMENS HEALTHCARE DIAGNOSTICS, published 2022).

Square brackets hold non-standard residues; d marks the D form. Ends that are not written are not given here. Nle = CCCC[C@H](N)C(=O)O

B1: 171J 3F1 monoclonal antibody (antibody, mouse IgG1, V domains shown)
VH: EVQLQQSGPELLKPGVSVMISCRASGYTFTDYTMHWVKQSHGESLEWIGGIIPKSGTSNYNEKFKDKATLTVDKSSSTSYMELRSLTSEDSAVYYCARNYYDGGSYYFDYWGQGTTLTVSS
VL: DIQMTQSPASLSASVGETVTITCRTSGNIHNFLTWFQQKQGKSPQLLVYSAETLADGVPSRFSGSGSGTQFSLRINSLQPEDFGSYFCQHFWNTPFTFGSGTKLEMK
notes: Mouse IgG1, kappa, from a hybridoma (immunogen partially purified native Hog R-protein)
B1: in test [1], the Kd came to 2.3 nM, the dissociation rate constant (koff) stood at 0.000165 s⁻¹ and the kon is 71500 M⁻¹ s⁻¹. Moreover, the binding result with Hog Intrinsic Factor [2] is given as “no binding”.

B2: 171B 1G5 monoclonal antibody (antibody, V domains shown)
VH: EVQLQESGPSLVKPSQTLSLTCSVTGDSITSDYWNWIRKFPGNKLEYMGYISYSGNTYYIPSLKSRISITRDTSKNQYYLQLNSVTSEDTATYYCARYDYDVYFSLDYWGQGTSVTVSS
VL: DVVMTQTPLSLPVSLGDQASISCRSSQSLVHSNRNTYLHWYLQRPGQSPKLLVYKVSNRFSGVPDRFSGSGSGTDFTLKISRVEAEDLGVYFCSQSTHVPLTFGAGTKLELKR
Take B2: in test [1], the Kd was found to be 72.3 nM, the off-rate (koff) came to 0.0047 s⁻¹ and the kon worked out at 65000 M⁻¹ s⁻¹. Also, the binding result in the test with Hog Intrinsic Factor [3] is reported as “no binding”. In test [4], the binding result was “binds”.

B3: 171J 3A6 monoclonal antibody (antibody, mouse IgG2b, V domains shown)
VH: QVQLQQPGAELVRPGALVKLSCKASGYTFTRYWIQWVKQRPGQGLEWIGNISPNSGSVNYSEKFKGKATLTVDKPSSTAYMQLNSLTSEDSAAYYCVRSGGDYFDYWGQGTTLTVSS
VL: DVLMTQTPLSLPVSLGVQASISCRSSQSILHANGNTYLEWYLQKPGQSPKLLIYKVSNRFSGVPDRFSGSGSGTDFTLYISRVEAEDLGVYYCFQGSHLPWTFGGGTKLEIK
notes: Mouse IgG2b, kappa, from a hybridoma (immunogen partially purified native Hog R-protein)
As to B3, in test [1], the equilibrium dissociation constant (Kd) stood at 2.6 nM, the koff worked out at 6.81e-05 s⁻¹ and the on-rate constant (kon) worked out at 26000 M⁻¹ s⁻¹. Moreover, the binding result in the test with Hog Intrinsic Factor [2] is listed as “no binding”.

B4: 171J 5H12 monoclonal antibody (antibody, mouse IgG1, V domains shown)
VH: QVQLQQSGAELVKPGASVKISCKASGYAFSSSWMNWVKQRPGKGLEWIGQIYPGDGDTNYNGKFKDKATLTADKSSNTAYMQLSSLTSEDSAVYFCARVNWDAFSYIDVWGTGTTVTVSS
VL: DIKMTQSPSSMYESLGERVTITCRASQDINVYLSWFQQKPGESPKTLIYRADRLVDGVPSRFSGSGSGQDYSLTISSLEYEDVGIYYCLQYDEFPYTFGGGTKLEIK
notes: as for B1
Regarding B4, in test [5], the Kd was 0.17 nM, the koff was determined as 1.9e-05 s⁻¹ and the association rate constant (kon) amounted to 115000 M⁻¹ s⁻¹. For the same molecule, the binding result with Hog Intrinsic Factor [2] was “no binding”.

B5: 171J 9G7 monoclonal antibody (antibody, mouse IgG1, V domains shown)
VH: EVQLQQSGAELVKPGASVKLSCTGSGFNIEDIYIHWVKQRPEQGLEWIGRMDPANGDTVYASKFQGKATMTADTSSNTAYMQLSSLTSGDTAVYYCARVFDYWGQGTSLTVSS
VL: DVVMTQTPLSLPVSLGDQASISCRSSQNLVHSNGYTYLHWYLQKPGQSPKLLIYKVSNRFSGVPDRFSGSGSGTDFTLKISRVEAEDLGVYFCSQNTHVPYTFGGGTKLEIK
notes: as for B1
In test [5], B5 came in with a koff of 0.00069 s⁻¹ and a kon of 4830 M⁻¹ s⁻¹. This molecule displayed a Kd in test [6] of 143 nM. In test [7], the “fold higher affinity than to native Hog R-protein” value was over 500 fold. Moreover, the on-rate (kon) in test [8] turned out to be 50600 M⁻¹ s⁻¹. For the same molecule, the binding result with Hog Intrinsic Factor [2] was “no binding”.

What is called Kd is the constant that tells how readily two partners part at equilibrium. A word on the koff: it is a measure of how fast the partners let go of each other. Broadly, the kon is the second-order rate constant of association.
